In the series the test system is T1, fluorogenic substrate (R&D systems, cat no ES007), peptide YVADAPK between a 7-methoxycoumarin (Mca) group and a 2,4-dinitrophenyl (Dnp) group.
T1 sequence: YVADAPK

For the substance “commercial ACE-2 from Sino Biological (cat no 10108H08H20)”, the “enzymatic activity assay using a fluorogenic substrate” value was “All four samples appeared to have similar levels of activity”.
